Target: S. venezuelae WhiD (SvWhiD), N-terminally His6-tagged, full length (S. venezuelae)
Assay: native MS; nondenaturing ESI-MS, 250 mM ammonium acetate, pH 7.2; SvWhiD alone (10 μM) or a 2:1 mixture of σ^HrdB4 and SvWhiD

S. venezuelae WhiD (SvWhiD), N-terminally His6-tagged, full length (natural protein)
stoichiometry N: 2
